In patent publication US20250313605A1 one finds cAMP EC50 (0.1% casein), cAMP EC50 (FBS and BSA present) and Ki data, which are given here for six molecules.

By Ki is commonly meant the equilibrium dissociation constant of an inhibitor or competing ligand from its target. Lower therefore signals a stronger hold on the target.

*1 amine or outer side, *2 acyl side, *3 side chain or, on linkers, in order; H or OH if unused. Where no end group is shown, it is not given here. Side-chain parts run from the residue outwards. [ ]: non-standard residue; d: D form. The star is where a group is joined. C20 diacid = O=C(O)CCCCCCCCCCCCCCCCCCC(=O)*; γGlu = O=C(O)[C@H](CCC(=O)[*:2])N[*:1]; αMeL = CC(C)C[C@](C)(N)C(=O)O; αMeK = C[C@](N)(CCCCN)C(=O)O; AEEA = NCCOCCOCC(=O)O; Aib = CC(C)(N)C(=O)O

Test [1] addresses T1, human GLP-1 receptor (human), P43220.
T1 chain: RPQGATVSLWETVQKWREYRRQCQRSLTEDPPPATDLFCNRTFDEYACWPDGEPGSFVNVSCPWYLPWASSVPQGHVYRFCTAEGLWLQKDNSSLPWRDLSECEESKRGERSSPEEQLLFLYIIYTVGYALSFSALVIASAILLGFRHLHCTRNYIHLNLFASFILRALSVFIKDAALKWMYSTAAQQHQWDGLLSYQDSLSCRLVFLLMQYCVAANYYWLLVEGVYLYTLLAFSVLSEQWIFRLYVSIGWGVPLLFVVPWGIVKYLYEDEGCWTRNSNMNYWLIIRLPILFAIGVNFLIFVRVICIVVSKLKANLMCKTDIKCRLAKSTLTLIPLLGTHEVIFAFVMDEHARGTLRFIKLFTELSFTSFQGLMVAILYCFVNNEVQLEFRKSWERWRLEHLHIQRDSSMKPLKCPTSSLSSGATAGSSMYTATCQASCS
Nature of the test: cell-based or functional assay.

Test [2] concerns the target human glucagon receptor (human), P47871. Briefly: cell-based or functional assay.
Test [3] deals with T2, human GIP receptor (human), P48546.
T2 chain: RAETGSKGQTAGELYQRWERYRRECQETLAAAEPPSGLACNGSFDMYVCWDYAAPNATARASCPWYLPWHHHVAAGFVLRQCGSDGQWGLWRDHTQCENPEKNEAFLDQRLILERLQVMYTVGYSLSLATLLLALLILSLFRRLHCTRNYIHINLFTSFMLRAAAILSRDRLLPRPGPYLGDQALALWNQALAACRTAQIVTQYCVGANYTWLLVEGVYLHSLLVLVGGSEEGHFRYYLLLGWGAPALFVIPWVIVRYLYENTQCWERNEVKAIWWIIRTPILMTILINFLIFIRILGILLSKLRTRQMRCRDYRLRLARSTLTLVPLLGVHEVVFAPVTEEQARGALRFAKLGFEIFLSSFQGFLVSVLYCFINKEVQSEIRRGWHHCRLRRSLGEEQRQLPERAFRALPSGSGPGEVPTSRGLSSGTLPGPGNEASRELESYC
Briefly: cell-based or functional assay.

The target in test [4] is T1, human GLP-1 receptor (human), P43220. Nature of the test: radioligand competition SPA, HEK293 membranes. (In general: In a radioligand displacement assay an active substance lowers the binding of a labelled ligand.)
Test [5] has as its target human glucagon receptor (human), P47871. Briefly: radioligand competition SPA, HEK293 membranes.
Test [6] has as its target T2, human GIP receptor (human), P48546. Briefly: radioligand competition SPA, HEK293 membranes.

Sequence of human glucagon receptor (human), P47871 (P47871 26-477): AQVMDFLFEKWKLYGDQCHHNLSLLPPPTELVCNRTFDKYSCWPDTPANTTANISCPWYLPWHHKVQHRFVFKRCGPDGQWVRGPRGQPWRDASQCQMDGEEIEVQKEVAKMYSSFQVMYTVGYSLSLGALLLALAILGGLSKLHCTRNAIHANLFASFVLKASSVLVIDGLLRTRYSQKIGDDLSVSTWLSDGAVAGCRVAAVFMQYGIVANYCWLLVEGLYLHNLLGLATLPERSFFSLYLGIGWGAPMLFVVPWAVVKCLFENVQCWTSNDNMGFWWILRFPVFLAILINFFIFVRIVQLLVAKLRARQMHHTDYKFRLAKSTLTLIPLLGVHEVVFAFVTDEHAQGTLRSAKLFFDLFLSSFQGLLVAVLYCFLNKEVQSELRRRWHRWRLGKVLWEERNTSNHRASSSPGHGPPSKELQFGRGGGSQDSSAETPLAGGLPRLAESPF

B1: Example 3 (peptide)
peptide: Y[Aib]QGTFTSDYSI[αMeL]LDKK([AEEA-AEEA-γGlu-C20 diacid])AQ[αMeK]AFIEYLLEGGPSSGAPPPS-NH2
B1: the results for the cAMP EC50 (0.1% casein) in test [1], in test [2] and in test [3] were 0.107 nM, 0.152 nM and 0.0376 nM, respectively. The cAMP EC50 (FBS and BSA present) in test [2] came out at 8.03 nM; in test [3], 1.91 nM. The values for the inhibitory constant (Ki) in test [4], in test [5] and in test [6] were 6.06 nM, 12 nM and 0.0446 nM, respectively.

B2: Example 15 (peptide)
peptide: Y[Aib]QGTFTSDYSILLDKK([AEEA-AEEA-γGlu-C20 diacid])AQ[Aib]AFIEYLLA[Aib]GPSSGAPPPS-NH2
modifications: N-terminus assumed
SMILES: CC[C@H](C)[C@H](NC(=O)[C@H](Cc1ccccc1)NC(=O)[C@H](C)NC(=O)C(C)(C)NC(=O)[C@H](CCC(N)=O)NC(=O)[C@H](C)NC(=O)[C@H](CCCCNC(=O)COCCOCCNC(=O)COCCOCCNC(=O)CC[C@H](NC(=O)CCCCCCCCCCCCCCCCCCC(=O)O)C(=O)O)NC(=O)[C@H](CCCCN)NC(=O)[C@H](CC(=O)O)NC(=O)[C@H](CC(C)C)NC(=O)[C@H](CC(C)C)NC(=O)[C@@H](NC(=O)[C@H](CO)NC(=O)[C@H](Cc1ccc(O)cc1)NC(=O)[C@H](CC(=O)O)NC(=O)[C@H](CO)NC(=O)[C@@H](NC(=O)[C@H](Cc1ccccc1)NC(=O)[C@@H](NC(=O)CNC(=O)[C@H](CCC(N)=O)NC(=O)C(C)(C)NC(=O)[C@@H](N)Cc1ccc(O)cc1)[C@@H](C)O)[C@@H](C)O)[C@@H](C)CC)C(=O)N[C@@H](CCC(=O)O)C(=O)N[C@@H](Cc1ccc(O)cc1)C(=O)N[C@@H](CC(C)C)C(=O)N[C@@H](CC(C)C)C(=O)N[C@@H](C)C(=O)NC(C)(C)C(=O)NCC(=O)N1CCC[C@H]1C(=O)N[C@@H](CO)C(=O)N[C@@H](CO)C(=O)NCC(=O)N[C@@H](C)C(=O)N1CCC[C@H]1C(=O)N1CCC[C@H]1C(=O)N1CCC[C@H]1C(=O)N[C@@H](CO)C(N)=O
Regarding B2, the cAMP EC50 (0.1% casein) in test [1] is 0.253 nM; in test [2] it was 0.131 nM; in test [3], 0.0689 nM. The cAMP EC50 (FBS and BSA present) in test [1] turned out to be 10.7 nM; in test [2] it was 5.92 nM; in test [3] it was 1.47 nM. Besides, the Ki worked out at 5.8 nM in test [4], 4.56 nM in test [5] and 0.0972 nM in test [6].

B3: Example 19 (peptide)
peptide: Y[Aib]QGTFTSDYSILLDKK([AEEA-γGlu-γGlu-C20 diacid])AQ[Aib]AFIEYLLE[Aib]GPSSGAPPPS-NH2
modifications: N-terminus assumed
SMILES: CC[C@H](C)[C@H](NC(=O)[C@H](Cc1ccccc1)NC(=O)[C@H](C)NC(=O)C(C)(C)NC(=O)[C@H](CCC(N)=O)NC(=O)[C@H](C)NC(=O)[C@H](CCCCNC(=O)COCCOCCNC(=O)CC[C@H](NC(=O)CC[C@H](NC(=O)CCCCCCCCCCCCCCCCCCC(=O)O)C(=O)O)C(=O)O)NC(=O)[C@H](CCCCN)NC(=O)[C@H](CC(=O)O)NC(=O)[C@H](CC(C)C)NC(=O)[C@H](CC(C)C)NC(=O)[C@@H](NC(=O)[C@H](CO)NC(=O)[C@H](Cc1ccc(O)cc1)NC(=O)[C@H](CC(=O)O)NC(=O)[C@H](CO)NC(=O)[C@@H](NC(=O)[C@H](Cc1ccccc1)NC(=O)[C@@H](NC(=O)CNC(=O)[C@H](CCC(N)=O)NC(=O)C(C)(C)NC(=O)[C@@H](N)Cc1ccc(O)cc1)[C@@H](C)O)[C@@H](C)O)[C@@H](C)CC)C(=O)N[C@@H](CCC(=O)O)C(=O)N[C@@H](Cc1ccc(O)cc1)C(=O)N[C@@H](CC(C)C)C(=O)N[C@@H](CC(C)C)C(=O)N[C@@H](CCC(=O)O)C(=O)NC(C)(C)C(=O)NCC(=O)N1CCC[C@H]1C(=O)N[C@@H](CO)C(=O)N[C@@H](CO)C(=O)NCC(=O)N[C@@H](C)C(=O)N1CCC[C@H]1C(=O)N1CCC[C@H]1C(=O)N1CCC[C@H]1C(=O)N[C@@H](CO)C(N)=O
B3: the figures for the cAMP EC50 (0.1% casein) in test [1], in test [2] and in test [3] were 0.143 nM, 0.0874 nM and 0.0455 nM, respectively. Besides, the cAMP EC50 (FBS and BSA present) in test [1] was 24.4 nM; in test [2], 8.45 nM; in test [3], 3.13 nM. Besides, the Ki is 12 nM in test [4], 5.2 nM in test [5] and 0.0789 nM in test [6].

B4: Example 16 (peptide)
peptide: Y[Aib]QGTFTSDYSILLDKK([AEEA-AEEA-γGlu-C20 diacid])AQ[Aib]AFIEYLLEGGPSSGAPPPS-NH2
Take B4: the cAMP EC50 (0.1% casein) stood at 0.157 nM in test [1], 0.174 nM in test [2] and 0.114 nM in test [3]. The cAMP EC50 (FBS and BSA present) in test [1] was 19 nM; in test [2] it was 13.2 nM; in test [3] it was 4.37 nM. The inhibitory constant (Ki) in test [4] is 16.1 nM; in test [5], 11.5 nM; in test [6], 0.106 nM.

B5: Example 17 (peptide)
peptide: Y[Aib]QGTFTSDYSILLDKK([AEEA-AEEA-γGlu-C20 diacid])AQ[Aib]AFIEYLLE[Aib]GPSSGAPPPS-NH2
modifications: N-terminus assumed
SMILES: CC[C@H](C)[C@H](NC(=O)[C@H](Cc1ccccc1)NC(=O)[C@H](C)NC(=O)C(C)(C)NC(=O)[C@H](CCC(N)=O)NC(=O)[C@H](C)NC(=O)[C@H](CCCCNC(=O)COCCOCCNC(=O)COCCOCCNC(=O)CC[C@H](NC(=O)CCCCCCCCCCCCCCCCCCC(=O)O)C(=O)O)NC(=O)[C@H](CCCCN)NC(=O)[C@H](CC(=O)O)NC(=O)[C@H](CC(C)C)NC(=O)[C@H](CC(C)C)NC(=O)[C@@H](NC(=O)[C@H](CO)NC(=O)[C@H](Cc1ccc(O)cc1)NC(=O)[C@H](CC(=O)O)NC(=O)[C@H](CO)NC(=O)[C@@H](NC(=O)[C@H](Cc1ccccc1)NC(=O)[C@@H](NC(=O)CNC(=O)[C@H](CCC(N)=O)NC(=O)C(C)(C)NC(=O)[C@@H](N)Cc1ccc(O)cc1)[C@@H](C)O)[C@@H](C)O)[C@@H](C)CC)C(=O)N[C@@H](CCC(=O)O)C(=O)N[C@@H](Cc1ccc(O)cc1)C(=O)N[C@@H](CC(C)C)C(=O)N[C@@H](CC(C)C)C(=O)N[C@@H](CCC(=O)O)C(=O)NC(C)(C)C(=O)NCC(=O)N1CCC[C@H]1C(=O)N[C@@H](CO)C(=O)N[C@@H](CO)C(=O)NCC(=O)N[C@@H](C)C(=O)N1CCC[C@H]1C(=O)N1CCC[C@H]1C(=O)N1CCC[C@H]1C(=O)N[C@@H](CO)C(N)=O
Regarding B5, the cAMP EC50 (0.1% casein) came out at 0.153 nM in test [1], 0.135 nM in test [2] and 0.0439 nM in test [3]. Besides, the cAMP EC50 (FBS and BSA present) in test [1] was 18.4 nM; in test [2] it was 8.05 nM; in test [3], 2.38 nM. Moreover, the inhibitory constant (Ki) is 10.2 nM in test [4], 5.81 nM in test [5] and 0.0895 nM in test [6].

B6: Example 18 (peptide)
peptide: Y[Aib]QGTFTSDYSILLDKK([AEEA-γGlu-C20 diacid])AQ[Aib]AFIEYLLEGGPSSGAPPPS-NH2
In the case of B6, the results for the cAMP EC50 (0.1% casein) in test [1], in test [2] and in test [3] were 0.141 nM, 0.0861 nM and 0.123 nM, respectively. Besides, the cAMP EC50 (FBS and BSA present) in test [1] came out at 16.1 nM; in test [2], 5.71 nM; in test [3] it was 5.89 nM. For the same molecule, the Ki came to 8.06 nM in test [4], 5.71 nM in test [5] and 0.0835 nM in test [6].
